Reference: patent US9655974B2, “N-terminal modified FGF21 compounds” (Novo Nordisk A/S, priority 2010, dated 2017)
Where a chain is given by its changes, count along the chain named. Names and notes keep the numbering of the source.

B1: [N121Q, L166F, S167G, M168L, P171L, S172E, Q173A, G174V, Y179F, A180E, des181] Ala-FGF21 (protein)
chain: HPIPDSSPLLQFGGQVRQRYLYTDDAQQTEAHLEIREDGTVGGAADQSPESLLQLKALKPGVIQILGVKTSRFLCQRPDGALYGSLHFDPEACSFRELLLEDGYNVYQSEAHGLPLHLPGQKSPHRDPAPRGPARFLPLPGLPPALPEPPGILAPQPPDVGSSDPFGLVGLEAVRSPSFES
B2: N-alpha-bis-(4-{[(2-(2-{2-[2-(2-{2-[(S)-4-carboxy-4-(17-carboxyheptadecanoylamino)butyrylamino]ethoxy}ethoxy)acetylamino]ethoxy}-ethoxy)acetylamino]methyl}benzyl) [Arg56, Arg59, Arg69, Arg122] … (conjugate, UniProt Q9NSA1 29-209, looked up, variant K56R K59R K69R K122R)
Fibroblast growth factor 21: HPIPDSSPLLQFGGQVRQRYLYTDDAQQTEAHLEIREDGTVGGAADQSPESLLQLRALRPGVIQILGVRTSRFLCQRPDGALYGSLHFDPEACSFRELLLEDGYNVYQSEAHGLPLHLPGNRSPHRDPAPRGPARFLPLPGLPPALPEPPGILAPQPPDVGSSDPLSMVGPSQGRSPSYAS
modifications: N-terminal Gly; bis fatty diacid-linker benzyl acylation
B3: [S71C, N121Q, L166F, S167G, M168L, 173aA, G174V, Y179F, A180E, des181] Ala-FGF21 (protein)
chain: AHPIPDSSPLLQFGGQVRQRYLYTDDAQQTEAHLEIREDGTVGGAADQSPESLLQLKALKPGVIQILGVKTCRFLCQRPDGALYGSLHFDPEACSFRELLLEDGYNVYQSEAHGLPLHLPGQKSPHRDPAPRGPARFLPLPGLPPALPEPPGILAPQPPDVGSSDPFGLVGPSQAVRSPSFE
B4: Met-FGF21 (protein)
chain: MHPIPDSSPLLQFGGQVRQRYLYTDDAQQTEAHLEIREDGTVGGAADQSPESLLQLKALKPGVIQILGVKTSRFLCQRPDGALYGSLHFDPEACSFRELLLEDGYNVYQSEAHGLPLHLPGNKSPHRDPAPRGPARFLPLPGLPPALPEPPGILAPQPPDVGSSDPLSMVGPSQGRSPSYAS
notes: comparative compound
B5: [K56R, K59R, K69R, K122R] Gly-FGF21 (protein)
chain: B4 chain with M1G, K57R, K60R, K70R, K123R
B6: [N121Q] Met-FGF21 (protein)
chain: B4 chain with N122Q
B7: [N121Q] Ala-FGF21 (protein)
chain: B4 chain with M1A, N122Q
B8: [S71C, N121Q, L166F, S167G, M168L, P171L, S172E, Q173A, G174V, Y179F, A180E, des181] Ala-FGF21 (protein)
chain: AHPIPDSSPLLQFGGQVRQRYLYTDDAQQTEAHLEIREDGTVGGAADQSPESLLQLKALKPGVIQILGVKTCRFLCQRPDGALYGSLHFDPEACSFRELLLEDGYNVYQSEAHGLPLHLPGQKSPHRDPAPRGPARFLPLPGLPPALPEPPGILAPQPPDVGSSDPFGLVGLEAVRSPSFE
B9: [S71C, N121Q, L166F, S167G, M168L, des170, 173aA, G174V, Y179F, A180E, des181] Ala-FGF21 (protein)
chain: B8 chain with G171P, L172S, E173Q

Assays:
3T3-L1 adipocytes = experiment: Potency assay - glucose uptake in 3T3-L1 adipocytes; format: cell-based, mouse; conditions: EC50 relative to EC50 of Met-FGF21; 20 hours stimulation, 3H-deoxyglucose tracer
Description: The following assay was used for determining the biological activity, or potency, of FGF21 compounds of the invention. […] The cells are not allowed to reach confluence and should be passed (transferred to new vials) before reaching approx. 60% of confluency (by visual inspection). For the glucose uptake assay, cells are plated 80,000 cells/well in a 24 well plate, or 20,000 cells/well in a 96 well plate, and when they reach confluency (high density, with a view to have differentiated adipose cells made), the medium is changed from basal medium to basal medium containing Troglitazone, IBMX, Dexamethasone (commercially available from, e.g., Sigma) and human insulin (commercially available from, e.g., Novo Nordisk A/S). The cells are used 7-14, preferably 7-10, days after initiation of differentiation. […] This incubation is terminated by washing twice in ice cold assay buffer. The cells are lysed with Triton X-100 and lysates transferred to a 96 wells plate, microscint-40 (commercially available from, e.g., Perkin Elmer) is added and amount of tracer counted in a TOP-counter (e.g. a Packard top-counter from Perkin Elmer). The EC50 of the polypeptide in question is calculated.

[1] = test system: HEK293 cells stably transfected with human beta-Klotho; experiment: HEK293/beta-Klotho Erk phosphorylation assay; format: cell-based; conditions: without HSA; 12 minutes incubation; AlphaScreen SureFire Phospho-ERK1/2; read-out: pERK-HEK293-Beta-klotho without HSA [EC50 (nM)] Mean Value
Description: Erk phosphorylation assay was performed in HEK293 cells that were stably transfected with human beta-Klotho. The HEK293T/b-klotho stable cells were seeded at 30000 cells/well on 96-well plates. After two days, fresh media was added, and after 2 hours more the FGF21 proteins were added. The plates were incubated for 12 minutes. And total ERK phosphorylation was assessed using an AlphaScreen SureFire Phospho-ERK1/2 Assay Kit (Perkin Elmer, Waltham, Mass.) according to the manufacturer's instructions and an EnVision Multilabel Microplate Reader Model 2103 (Perkin Elmer) with the AlphaScreen HTS Turbo option was used for signal detection. Data are represented as means+/−S.E.M. EC50 values were determined from a 4-parameter logistic nonlinear regression analysis using GraphPad Prism version 5.02. References: Yie, J. et al.: FGF21 N- and C-termini play different roles in receptor interaction and activation, FEBS Letters 583 (2009) 19-24, and Micanovic R. et al.: Different roles of N- and C-termini in the functional activity of FGF21. J. Cell. Physiol. 2009 May; 219(2):227-34.

[2] = Pharmacokinetics in mini pig, single intravenous dose; format: in vivo; conditions: normal male Göttingen mini pigs, single intravenous dose of 0.1 mg/kg; standard deviation 2.7 hours
Description: The pharmacokinetic profile of Met-FGF21 can be tested in normal male Göttingen mini pigs, n=4 (8-15 months old, weighing approximately 18-30 kg). The plasma concentration of the compound to be tested is monitored for 14 days. The Met-FGF21 is dosed as a single intravenous dose of 0.1 mg/kg (approximately 5 nmol/kg).
The plasma levels of the FGF21 compounds can be determined using Fibroblast Growth Factor-21 Human ELISA (available from BioVendor, catalogue no. RD191108200R). The PC based software, WinNonLin version 5.2 from Pharsight Corporation, Cary N.C., can be used for the pharmacokinetic calculation.

Row | Molecule | Glucose uptake 3T3-L1 Potency (%) rel. to Met-FGF21 (3T3-L1 adipocytes) [%] | EC50 [1] [nM] | mean half-life (T1/2) [2] [h]
1 | N-alpha(4-{[2-(2-{2-[2-(2-{2-[(S)-4-Carboxy-4-(17-carboxyheptadecanoylamino)butyrylamino]-ethoxy}ethoxy)acetylamino]ethoxy}ethoxy)acetylamino]methyl}benzyl) [S71C, N121Q, L166F, S167G, M168L, P171L, S172E, Q173A, G174V, Y179F, A180E, des181] Ala-FGF21 [Example 6] | 352 | 0.4 | –
2 | [Q28R, K56R, K59R, K69R, D102T, D121Q, K122R, L166F, S167G, M168L, G170T] Ala-FGF21 [Example 2b] | 416 | 0.8 | –
3 | N-alpha-(4-{[2-(2-{2-[2-(2-{2-[(S)-4-carboxy-4-(17-carboxyheptadecanoylamino)butyrylamino]ethoxy}ethoxy)acetylamino]ethoxy}ethoxy)acetylamino]methyl}benzyl) [K56R, K59R, K69R, D102T, D121Q, K122R, L166F, S167G, M168L, G170T] Ala-FGF21 [Example 5] | 100 | 1 | –
4 | B1 | 1593 | 0.7 | –
5 | B2 | 8.5 | 4.6 | –
6 | B3 | 394 | – | –
7 | B4 | 100 | – | 10.8
8 | B5 | 66 | – | –
9 | B6 | 119 | – | –
10 | B7 | 116 | – | –
11 | B8 | 872 | – | –
12 | B9 | 663 | – | –
